# Data published in patent US20260201008A1, “SECRETIN-DERIVED GLP1R SELECTIVE AGONISTS” (GUBRA A/S, priority 2023, published 2026).
# Where two headings read alike, the source gives them in different places. Numbered stars: 1 amine (or outer) side, 2 acyl side, 3 side chain; on linkers, the order of the positions; unused ones are H or OH. Square brackets hold non-standard residues; d marks the D form. Side chains are listed from the residue outwards. Ends that are not written are not given here. Peptide text beside a SMILES is read from it. * marks the point of attachment. C20 diacid = O=C(O)CCCCCCCCCCCCCCCCCCC(=O)*; γGlu = O=C(O)[C@H](CCC(=O)[*:2])N[*:1]; AEEA = NCCOCCOCC(=O)O; Aib = CC(C)(N)C(=O)O
# B1: SEQ ID NO: 229 (peptide)
# peptide: H[Aib]EGTFTSDLSYLLEGAALQRFIQWLV-NH2
# modifications: N-terminus assumed
# SMILES: CC[C@H](C)[C@H](NC(=O)[C@H](Cc1ccccc1)NC(=O)[C@H](CCCNC(=N)N)NC(=O)[C@H](CCC(N)=O)NC(=O)[C@H](CC(C)C)NC(=O)[C@H](C)NC(=O)[C@H](C)NC(=O)CNC(=O)[C@H](CCC(=O)O)NC(=O)[C@H](CC(C)C)NC(=O)[C@H](CC(C)C)NC(=O)[C@H](Cc1ccc(O)cc1)NC(=O)[C@H](CO)NC(=O)[C@H](CC(C)C)NC(=O)[C@H](CC(=O)O)NC(=O)[C@H](CO)NC(=O)[C@@H](NC(=O)[C@H](Cc1ccccc1)NC(=O)[C@@H](NC(=O)CNC(=O)[C@H](CCC(=O)O)NC(=O)C(C)(C)NC(=O)[C@@H](N)Cc1c[nH]cn1)[C@@H](C)O)[C@@H](C)O)C(=O)N[C@@H](CCC(N)=O)C(=O)N[C@@H](Cc1c[nH]c2ccccc12)C(=O)N[C@@H](CC(C)C)C(=O)N[C@H](C(N)=O)C(C)C
# B2: SEQ ID NO: 225 (peptide)
# peptide: H[Aib]EGTFTSDLSFLLEGAALQRFIQWLV-NH2
# modifications: N-terminus assumed
# SMILES: CC[C@H](C)[C@H](NC(=O)[C@H](Cc1ccccc1)NC(=O)[C@H](CCCNC(=N)N)NC(=O)[C@H](CCC(N)=O)NC(=O)[C@H](CC(C)C)NC(=O)[C@H](C)NC(=O)[C@H](C)NC(=O)CNC(=O)[C@H](CCC(=O)O)NC(=O)[C@H](CC(C)C)NC(=O)[C@H](CC(C)C)NC(=O)[C@H](Cc1ccccc1)NC(=O)[C@H](CO)NC(=O)[C@H](CC(C)C)NC(=O)[C@H](CC(=O)O)NC(=O)[C@H](CO)NC(=O)[C@@H](NC(=O)[C@H](Cc1ccccc1)NC(=O)[C@@H](NC(=O)CNC(=O)[C@H](CCC(=O)O)NC(=O)C(C)(C)NC(=O)[C@@H](N)Cc1c[nH]cn1)[C@@H](C)O)[C@@H](C)O)C(=O)N[C@@H](CCC(N)=O)C(=O)N[C@@H](Cc1c[nH]c2ccccc12)C(=O)N[C@@H](CC(C)C)C(=O)N[C@H](C(N)=O)C(C)C
# B3: SEQ ID NO: 228 (peptide)
# peptide: H[Aib]EGTFTSDLSWLLEGAALQRFIQWLV-NH2
# modifications: N-terminus assumed
# SMILES: CC[C@H](C)[C@H](NC(=O)[C@H](Cc1ccccc1)NC(=O)[C@H](CCCNC(=N)N)NC(=O)[C@H](CCC(N)=O)NC(=O)[C@H](CC(C)C)NC(=O)[C@H](C)NC(=O)[C@H](C)NC(=O)CNC(=O)[C@H](CCC(=O)O)NC(=O)[C@H](CC(C)C)NC(=O)[C@H](CC(C)C)NC(=O)[C@H](Cc1c[nH]c2ccccc12)NC(=O)[C@H](CO)NC(=O)[C@H](CC(C)C)NC(=O)[C@H](CC(=O)O)NC(=O)[C@H](CO)NC(=O)[C@@H](NC(=O)[C@H](Cc1ccccc1)NC(=O)[C@@H](NC(=O)CNC(=O)[C@H](CCC(=O)O)NC(=O)C(C)(C)NC(=O)[C@@H](N)Cc1c[nH]cn1)[C@@H](C)O)[C@@H](C)O)C(=O)N[C@@H](CCC(N)=O)C(=O)N[C@@H](Cc1c[nH]c2ccccc12)C(=O)N[C@@H](CC(C)C)C(=O)N[C@H](C(N)=O)C(C)C
# B4: SEQ ID NO: 219 (peptide)
# peptide: H[Aib]EGTFTSDWSRLLEGAALQRFIQWLV-NH2
# modifications: N-terminus assumed
# SMILES: CC[C@H](C)[C@H](NC(=O)[C@H](Cc1ccccc1)NC(=O)[C@H](CCCNC(=N)N)NC(=O)[C@H](CCC(N)=O)NC(=O)[C@H](CC(C)C)NC(=O)[C@H](C)NC(=O)[C@H](C)NC(=O)CNC(=O)[C@H](CCC(=O)O)NC(=O)[C@H](CC(C)C)NC(=O)[C@H](CC(C)C)NC(=O)[C@H](CCCNC(=N)N)NC(=O)[C@H](CO)NC(=O)[C@H](Cc1c[nH]c2ccccc12)NC(=O)[C@H](CC(=O)O)NC(=O)[C@H](CO)NC(=O)[C@@H](NC(=O)[C@H](Cc1ccccc1)NC(=O)[C@@H](NC(=O)CNC(=O)[C@H](CCC(=O)O)NC(=O)C(C)(C)NC(=O)[C@@H](N)Cc1c[nH]cn1)[C@@H](C)O)[C@@H](C)O)C(=O)N[C@@H](CCC(N)=O)C(=O)N[C@@H](Cc1c[nH]c2ccccc12)C(=O)N[C@@H](CC(C)C)C(=O)N[C@H](C(N)=O)C(C)C
# B5: SEQ ID NO: 226 (peptide)
# peptide: H[Aib]EGTFTSDLSGLLEGAALQRFIQWLV-NH2
# modifications: N-terminus assumed
# SMILES: CC[C@H](C)[C@H](NC(=O)[C@H](Cc1ccccc1)NC(=O)[C@H](CCCNC(=N)N)NC(=O)[C@H](CCC(N)=O)NC(=O)[C@H](CC(C)C)NC(=O)[C@H](C)NC(=O)[C@H](C)NC(=O)CNC(=O)[C@H](CCC(=O)O)NC(=O)[C@H](CC(C)C)NC(=O)[C@H](CC(C)C)NC(=O)CNC(=O)[C@H](CO)NC(=O)[C@H](CC(C)C)NC(=O)[C@H](CC(=O)O)NC(=O)[C@H](CO)NC(=O)[C@@H](NC(=O)[C@H](Cc1ccccc1)NC(=O)[C@@H](NC(=O)CNC(=O)[C@H](CCC(=O)O)NC(=O)C(C)(C)NC(=O)[C@@H](N)Cc1c[nH]cn1)[C@@H](C)O)[C@@H](C)O)C(=O)N[C@@H](CCC(N)=O)C(=O)N[C@@H](Cc1c[nH]c2ccccc12)C(=O)N[C@@H](CC(C)C)C(=O)N[C@H](C(N)=O)C(C)C
# B6: SEQ ID NO: 217 (peptide)
# peptide: H[Aib]EGTFTSDYSRLLEGAALQRFIQWLV-NH2
# modifications: N-terminus assumed
# SMILES: CC[C@H](C)[C@H](NC(=O)[C@H](Cc1ccccc1)NC(=O)[C@H](CCCNC(=N)N)NC(=O)[C@H](CCC(N)=O)NC(=O)[C@H](CC(C)C)NC(=O)[C@H](C)NC(=O)[C@H](C)NC(=O)CNC(=O)[C@H](CCC(=O)O)NC(=O)[C@H](CC(C)C)NC(=O)[C@H](CC(C)C)NC(=O)[C@H](CCCNC(=N)N)NC(=O)[C@H](CO)NC(=O)[C@H](Cc1ccc(O)cc1)NC(=O)[C@H](CC(=O)O)NC(=O)[C@H](CO)NC(=O)[C@@H](NC(=O)[C@H](Cc1ccccc1)NC(=O)[C@@H](NC(=O)CNC(=O)[C@H](CCC(=O)O)NC(=O)C(C)(C)NC(=O)[C@@H](N)Cc1c[nH]cn1)[C@@H](C)O)[C@@H](C)O)C(=O)N[C@@H](CCC(N)=O)C(=O)N[C@@H](Cc1c[nH]c2ccccc12)C(=O)N[C@@H](CC(C)C)C(=O)N[C@H](C(N)=O)C(C)C
# B7: SEQ ID NO: 227 (peptide)
# peptide: H[Aib]EGTFTSDLSVLLEGAALQRFIQWLV-NH2
# modifications: N-terminus assumed
# SMILES: CC[C@H](C)[C@H](NC(=O)[C@H](Cc1ccccc1)NC(=O)[C@H](CCCNC(=N)N)NC(=O)[C@H](CCC(N)=O)NC(=O)[C@H](CC(C)C)NC(=O)[C@H](C)NC(=O)[C@H](C)NC(=O)CNC(=O)[C@H](CCC(=O)O)NC(=O)[C@H](CC(C)C)NC(=O)[C@H](CC(C)C)NC(=O)[C@@H](NC(=O)[C@H](CO)NC(=O)[C@H](CC(C)C)NC(=O)[C@H](CC(=O)O)NC(=O)[C@H](CO)NC(=O)[C@@H](NC(=O)[C@H](Cc1ccccc1)NC(=O)[C@@H](NC(=O)CNC(=O)[C@H](CCC(=O)O)NC(=O)C(C)(C)NC(=O)[C@@H](N)Cc1c[nH]cn1)[C@@H](C)O)[C@@H](C)O)C(C)C)C(=O)N[C@@H](CCC(N)=O)C(=O)N[C@@H](Cc1c[nH]c2ccccc12)C(=O)N[C@@H](CC(C)C)C(=O)N[C@H](C(N)=O)C(C)C
# Experiments:
# [1] = Thioflavin T fibril formation assay of purified peptides; format: physicochemical; conditions: 267 μM, phosphate buffer pH 7.0, 96 h at 40° C.
# Procedure: Thioflavin T fibril formation assay: Peptides are dissolved as 267 μM in 50 mM phosphate buffer pH 7.0 for 2 h at room temperature on a rocking table. The samples were then divided into three replicates of 80 μl/well and mixed with 2 μl/well Thioflavin T (ThT) to a final concentration of 4 μM ThT in a black 384 well microplate with a clear bottom (Greiner #781096). The plate is inserted in a CLARIOstar Plus microplate reader (BMG Labtech) and fibril formation is measured as an increase in fluorescence emission at 480 nm (excitation at 450 nm) during 96 h at 40° C. with cycles of 5 min rest and 5 min linear shaking at 700 rpm.
# [2] = Solubility of purified peptides; format: physicochemical; conditions: 100 mM phosphate buffer, target pH 7.0, target approximately 10 mg/mL
# Procedure: Solubility was tested in the following vehicles: 100 mM phosphate buffer facilitating a target pH of 7.0. Samples were directly dissolved in Mini-UniPrep Syringeless Filter 0.45 μm unit (Whatman). For the desired concentration, such as a concentration of approximately 10 mg/mL, 1050 nmol of peptide was dissolved in 400 μL vehicle. Samples were incubated for at least 1 h at room temperature on a rocking table. The pH was measured and adjusted. Samples were left on the rocking table for an additional hour before a second pH measurement and adjustment. Visual inspection was performed and noted before the filter was pushed. The concentration of peptide in the filtrate was determined using CAD (Charged Aerosol Detection), double determination was done for each sample. The measured concentration was reported in μM. Furthermore, the pH of the filtrate was measured and reported. Peptides with a measured concentration within +/−20% of target concentration are considered fully soluble.
# [3] = biological target: human GLP-1 receptor (hGLP1R) (human, UniProt P43220 24-463); test: cell-based or functional assay
# [4] = biological target: T1, human secretin receptor (hSCTR) (human, UniProt P47872 23-440); test: cell-based or functional assay
# T1 sequence (P47872 23-440): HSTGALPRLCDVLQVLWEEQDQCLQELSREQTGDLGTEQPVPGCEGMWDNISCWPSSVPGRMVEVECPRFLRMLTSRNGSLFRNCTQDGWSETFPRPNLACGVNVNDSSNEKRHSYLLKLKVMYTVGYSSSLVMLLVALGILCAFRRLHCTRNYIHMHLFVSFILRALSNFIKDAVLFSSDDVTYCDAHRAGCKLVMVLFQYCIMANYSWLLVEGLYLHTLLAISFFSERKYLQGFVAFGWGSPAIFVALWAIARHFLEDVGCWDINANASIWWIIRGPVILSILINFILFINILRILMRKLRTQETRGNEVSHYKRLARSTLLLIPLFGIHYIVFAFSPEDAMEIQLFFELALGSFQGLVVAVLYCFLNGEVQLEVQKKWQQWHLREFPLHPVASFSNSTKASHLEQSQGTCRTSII
# [5] = biological target: T1, human secretin receptor (hSCTR); test: cell-based or functional assay; remark: listed apart in the source
Molecule,Fibril formation [1],solubility [2],pEC50 hGLPR1 [3],pEC50 hSCTR [4],pEC50 hSCTR [5]
CC(C)C[C@H](NC(=O)[C@H](Cc1ccccc1)NC(=O)[C@H](CCCNC(=N)N)NC(=O)[C@H](CCC(N)=O)NC(=O)[C@H](CC(C)C)NC(=O)C(C)(C)NC(=O)[C@H](C)NC(=O)[C@H](CCC(=O)O)NC(=O)[C@H](CCC(=O)O)NC(=O)[C@H](CCCCNC(=O)COCCOCCNC(=O)COCCOCCNC(=O)CC[C@H](NC(=O)CCCCCCCCCCCCCCCCCCC(=O)O)C(=O)O)NC(=O)[C@H](CC(C)C)NC(=O)[C@H](CCCNC(=N)N)NC(=O)[C@H](CO)NC(=O)[C@@H](NC(=O)[C@H](CC(=O)O)NC(=O)[C@H](CO)NC(=O)[C@@H](NC(=O)[C@H](Cc1ccccc1)NC(=O)[C@@H](NC(=O)CNC(=O)[C@H](CCC(=O)O)NC(=O)C(C)(C)NC(=O)[C@@H](N)Cc1c[nH]cn1)[C@@H](C)O)[C@@H](C)O)C(C)C)C(=O)N[C@@H](CCC(=O)O)C(=O)N[C@@H](Cc1c[nH]cn1)C(=O)N[C@@H](CC(C)C)C(=O)N[C@H](C(=O)N[C@@H](CCC(=O)O)C(=O)N[C@@H](C)C(=O)N[C@@H](C)C(N)=O)C(C)C [compound 208] (H-H[Aib]EGTFTSDVSRLK([AEEA-AEEA-γGlu-C20 diacid])EEA[Aib]LQRFLEHLVEAA-NH2),No,9200 µg/mL,–,–,–
B1,–,–,10.8 -log M,8 -log M,–
B2,–,–,10.6 -log M,8.1 -log M,–
B3,–,–,10.8 -log M,9.1 -log M,–
B4,–,–,–,–,8.2 -log M
B5,–,–,10.5 -log M,8.3 -log M,–
B6,–,–,–,–,8.8 -log M
B7,–,–,10.5 -log M,8.9 -log M,–
